Laboratory results published in US20240190968A1.

Target: Cynomolgus monkey B7H6 protein overexpressed in CHO-K1 cells (Cynomolgus monkey)
Experiment: flow cytometry on CHO-K1-cyno B7H6 cells, Alexa-647 mouse anti-human IgG-Fc secondary antibody, binding ratio (%)

Chain of Cynomolgus monkey B7H6 protein overexpressed in CHO-K1 cells (Cynomolgus monkey) (chain, as listed by the source limits assumed, form in doubt): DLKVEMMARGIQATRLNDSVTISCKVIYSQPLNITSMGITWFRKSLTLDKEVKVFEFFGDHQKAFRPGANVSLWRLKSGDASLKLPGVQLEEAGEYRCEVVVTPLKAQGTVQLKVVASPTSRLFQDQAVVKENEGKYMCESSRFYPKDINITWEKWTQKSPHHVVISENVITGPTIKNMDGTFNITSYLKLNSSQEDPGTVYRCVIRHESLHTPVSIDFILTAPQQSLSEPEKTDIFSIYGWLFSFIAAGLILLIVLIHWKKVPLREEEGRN

Row | EC50 (read off the curve) | Binder
1 | 0.2 µg/mL | humanized antibody h12F5 (antibody, human IgG1, kappa, V domains shown) VH: EVQLVQSGAEVKKPGASVKVSCKASGYTFTSYYMYWVRQAPGQGLEWIGEINPSNGGTNFNEKFKSRVTLTVDKSISTAYMELSRLRSDDTAVYYCTRTLYYGNDWYFDVWGQGTTVTVSS VL: EIVLTQSPDFQSVTPKEKVTITCSASSSVNYMHWYQQKPDQSPKRLIYDTSKLASGVPSRFSGSGSGTDYTLTINSLEAEDAATYYCQQWSSNPVTFGQGTKLEIKR
2 | 0.7 µg/mL | humanized antibody h12G4 (antibody, human IgG1, kappa, V domains shown) VH: EVQLVQSGAEVKKPGASVKVSCKASGYTFTDYNMDWVRQAPGKGLEWIGDINPNNGGTLYNQKFRGRVTLTVDKSISTAYMELSRLRSDDTAVYYCARSEVFYGNYADYWGQGTTVTVSS VL: DIVLTQTPLSLSVTPGQPASISCKASQSVDYDGDSYMNWYLQKPGQPPQLLIYAASTLHSGVPDRFSGSGSGTDFTLKISRVEAEDVGVYYCQQSKEDPRTFGQGTKLEIKR
